Data as given in patent US20240270866A1 (Alector, published 2024).

T1: Mouse SIRPA D1 Fc (mouse, UniProt P97797 32-150, limits assumed)
T1 sequence: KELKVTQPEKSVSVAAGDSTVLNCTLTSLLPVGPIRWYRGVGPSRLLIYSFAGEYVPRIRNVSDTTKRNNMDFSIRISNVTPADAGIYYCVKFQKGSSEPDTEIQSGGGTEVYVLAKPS

T2: mouse SIRPA overexpressed on CHO cells (mouse, UniProt P97797 32-513)
T2 construct: also called CHO-muSIRPA
T2 sequence: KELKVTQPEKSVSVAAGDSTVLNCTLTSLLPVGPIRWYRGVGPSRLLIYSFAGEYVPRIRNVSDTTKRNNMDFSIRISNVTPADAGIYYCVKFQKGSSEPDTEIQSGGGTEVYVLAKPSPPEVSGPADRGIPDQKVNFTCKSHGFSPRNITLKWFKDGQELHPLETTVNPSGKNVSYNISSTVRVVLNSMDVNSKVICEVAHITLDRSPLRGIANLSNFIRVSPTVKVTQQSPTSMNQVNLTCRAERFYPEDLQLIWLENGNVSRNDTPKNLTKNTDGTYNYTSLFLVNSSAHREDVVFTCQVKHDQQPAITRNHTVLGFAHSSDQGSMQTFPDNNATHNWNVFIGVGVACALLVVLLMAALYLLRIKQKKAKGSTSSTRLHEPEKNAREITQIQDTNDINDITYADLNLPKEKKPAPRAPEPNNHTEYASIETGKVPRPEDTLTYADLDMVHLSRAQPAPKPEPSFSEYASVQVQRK


Columns and labels:
[1] = target: T1, Mouse SIRPA D1 Fc; experiment: ForteBio IgG avid;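 note: antibody IgG captured on AHQ biosensors, then 100 nM Fc-fused SIRP antigen applied for 3 min, followed by 3 min buffer dissociation, kinetics fitted to a 1:1 model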
[2] = target: Human SIRPb D1 Fc (human, UniProt O00241 30-148, limits assumed); experiment: ForteBio IgG avid;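 note: antibody IgG captured on AHQ biosensors, then 100 nM Fc-fused SIRP antigen applied for 3 min, followed by 3 min buffer dissociation, kinetics fitted to a 1:1 model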
Sequence of Human SIRPb D1 Fc (O00241 30-148 limits assumed): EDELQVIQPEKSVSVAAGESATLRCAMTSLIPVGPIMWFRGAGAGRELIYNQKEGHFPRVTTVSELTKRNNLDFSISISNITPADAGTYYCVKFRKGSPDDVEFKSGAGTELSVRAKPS

[3] = target: T2, mouse SIRPA overexpressed on CHO cells; experiment: flow, CHO-muSIRPA;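 for relative MFI: antibody binding measured by flow cytometry: cells stained with 1 ug/ml test antibody for 1 h on ice, detected with PE-labelled secondary antibody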
[4] = target: T2, mouse SIRPA overexpressed on CHO cells; experiment: flow, CHO-muSIRPA; remark: listed apart in the source;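 for relative MFI: antibody binding measured by flow cytometry: cells stained with 1 ug/ml test antibody for 1 h on ice, detected with PE-labelled secondary antibody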
[5] = target: T3, human SIRPA overexpressed on CHO cells (human, UniProt P78324 31-504); experiment: flow, CHO-huSIRPA;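 note: Anti-SIRPA antibodies applied at 1 µg/mL for 1 h on ice, binding read by flow cytometry using a PE-labelled secondary antibody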
T3 construct: also called CHO-huSIRPA

Row | binding result [1] | binding result [2] | binding result [3] | relative MFI [4] | relative MFI [5] | Kd [2] | Binder
1 | no binding (tested: 100 nM) | no binding (tested: 100 nM) | no binding (tested: 1 ug/ml) | 0.476 fold over background | 0.989 fold over background |  | SA-17 (antibody, V domains shown, IgG) VH: QVQLVQSGAEVKKPGSSVKVSCKASGGTFSSYAISWVRQAPGQGLEWMGGIIPIFGTASYAQKFQGRVTITADESTSTAYMELSSLRSEDTAVYYCARDLSAFYVGPFDYWGQGTLVTVSS VL: EIVMTQSPATLSVSPGERATLSCRASQSVSSSLAWYQQKPGQAPRLLIYGASTRATGIPARFSGSGSGTEFTLTISSLQSEDFAVYYCQQDYIWPLTFGGGTKVEIK
2 | no binding (tested: 100 nM) |  | no binding (tested: 1 ug/ml) |  |  |  | SA-51 (antibody, V domains shown, IgG) VH: QVQLVQSGAEVKKPGSSVKVSCKASGGTFSSYAISWVRQAPGQGLEWMGSIIPIFGTANYAQKFQGRVTITADESTSTAYMELSSLRSEDTAVYYCARGGYAAGTDYYMGVWGKGTTVTVSS VL: not shown
3 | no binding (tested: 100 nM) |  | no binding (tested: 1 ug/ml) | 0.5 fold over background | 57.8 fold over background |  | SA-8 (antibody, V domains shown, IgG; also called SA-8 (parental)) VH: QVQLVESGGGVVQPGRSLRLSCAASGFTFSSYGMHWVRQAPGKGLEWVAVISYDGSNKYYADSVKGRFTISRDNSKNTLYLQMNSLRAEDTAVYYCAKEPRSYWHGYGMDVWGQGTTVTVSS VL: not shown
4 | no binding (tested: 100 nM) |  | no binding (tested: 1 ug/ml) | 0.542 fold over background |  |  | SA-24 (antibody, V domains shown, IgG) VH: not shown VL: EIVLTQSPATLSLSPGERATLSCRASQSVSSYLAWYQQKPGQAPRLLIYDASNRATGIPARFSGSGSGTDFTLTISSLEPEDFAVYYCQQRLDWPYTFGGGTKVEIK
5 | no binding (tested: 100 nM) |  | no binding (tested: 1 ug/ml) | 0.646 fold over background |  |  | SA-9 (antibody, V domains shown, IgG) VH: not shown VL: DIQMTQSPSSVSASVGDRVTITCRASQGISSWLAWYQQKPGKAPKLLIYAASSLQSGVPSRFSGSGSGTDFTLTISSLQPEDFATYYCQQAYLYPITFGGGTKVENQ
6 | no binding (tested: 100 nM) |  | no binding (tested: 1 ug/ml) | 0.708 fold over background |  |  | SA-33 (antibody, V domains shown, IgG) VH: QVQLVQSGAEVKKPGSSVKVSCKASGGTFSSYAISWVRQAPGQGLEWMGGIIPIFGTASYAQKFQGRVTITADESTSTAYMELSSLRSEDTAVYYCARDVGMARGDPYGMDVWGQGTTVTVSS VL: DIQMTQSPSSVSASVGDRVTITCRASQGISSWLAWYQQKPGKAPKLLISAASSLQSGVPSRFSGSGSGTDFTLTISSLQPEDFATYYCLQAYSFPFTFGGGTKVEIK
7 | no binding (tested: 100 nM) |  | no binding (tested: 1 ug/ml) | 0.533 fold over background |  |  | SA-5 (antibody, V domains shown, IgG; also called SA-5 (parental)) VH: not shown VL: DIQLTQSPSSVSASVGDRVTITCRASQDISSWLAWYQQKPGKAPKLLIYAASSLQSGVPSRFSGSGSGTDFTLTISSLQPEDFATYYCQQGYIFPRTFGGGTKVEIK
8 | no binding (tested: 100 nM) | no binding (tested: 100 nM) | no binding (tested: 1 ug/ml) | 0.851 fold over background | 0.972 fold over background |  | SA-11 (antibody, V domains shown, IgG) VH: EVQLVESGGGLVQPGRSLRISCAASGFTFGDYAMHWVRQAPGKGLEWVSGISWNSGSIGYADSVKGRFTISRDNAKNSLYLQMNSLRAEDTALYYCAKTRYGYYSYDFDLWGRGTLVTVSS VL: not shown

More lines, now with the values behind:

Row | Binder | binding result [1] | binding result [2] | binding result [3] | relative MFI [4] | relative MFI [5] | Kd [2]
9 | SA-46 (antibody, V domains shown, IgG) VH: EVQLLESGGGLVQPGGSLRLSCAASGFTFSTYAMSWVRQAPGKGLEWVSAISGSGGSTYYADSVKGRFTISRDNSKNTLYLQMNSLRAEDTAVYYCARESYDSSLHYYGMDVWGQGTTVTVSS VL: EIVLTQSPGTLSLSPGERATLSCRASQSVSSSYLAWYQQKPGQAPRLLIYGASSRATGIPDRFSGSGSGTDFTLTISRLEPEDFAVYYCQQHFSLPPTFGGGTKVEIK | no binding (tested: 100 nM) |  | no binding (tested: 1 ug/ml) | 0.476 fold over background |  | 
10 | SA-10 (antibody, V domains shown, IgG) VH: EVQLVESGGGLVQPGRSLRLSCAASGFTFDDYAMHWVRQAPGKGLEWVSGITWNSGSIGYADSVKGRFTISRDNAKNSLYLQMNSLRAEDTALYYCAKGKQYSANYFDYWGQGTLVTVSS VL: DIQMTQSPSTLSASVGDRVTITCRASQSISSWLAWYQQKPGKAPKLLIYEASSLESGVPSRFSGSGSGTEFTLTISSLQPDDFATYYCQQDNSLPYTFGGGTKVEIK | no binding (tested: 100 nM) | no binding (tested: 100 nM) | no binding (tested: 1 ug/ml) | 0.583 fold over background | 4.62 fold over background | 
11 | SA-55 (antibody, V domains shown, IgG) VH: EVQLVESGGGLVQPGGSLRLSCAASGFTFSSYWMSWVRQAPGKGLEWVANIKQDGSEKYYVDSVKGRFTISRDNAKNSLYLQMNSLRAEDTAVYYCARGSPYYDAYDFDLWGRGTLVTVSS VL: DIQLTQSPSTLSASVGDRVTITCRASQAISSWLAWYQQKPGKAPKLLIYDASSLESGVPSRFSGSGSGTEFTLTISSLQPDDFATYYCQQYESFPWTFGGGTKVEIK | no binding (tested: 100 nM) |  | no binding (tested: 1 ug/ml) | 0.464 fold over background |  | 
12 | SA-15 (antibody, V domains shown, IgG) VH: QVQLVQSGAEVKKPGSSVKVSCKASGGTFSSYAISWVRQAPGQGLEWMGGIIPIFGTANYAQKFQGRVTITADESTSTAYMELSSLRSEDTAVYYCARDGSYSYATYWGQGTLVTVSS VL: EIVLTQSPATLSLSPGERATLSCRASQSVSSYLAWYQQKPGQAPRLLIYDASNRATGIPARFSGSGSGTDFTLTISSLEPEDFAVYYCQQPYNFPLTFGGGTKVEIK | no binding (tested: 100 nM) |  | no binding (tested: 1 ug/ml) | 0.512 fold over background | 0.768 fold over background | 28.4 nM
13 | SA-49 (antibody, V domains shown, IgG) VH: EVQLVESGGGLVKPGGSLRLSCAASGFTFSSYSMNWVRQAPGKGLEWVSSISSSSSYIYYADSVKGRFTISRDNAKNSLYLQMNSLRAEDTAVYYCARGAPSMQYSPYYYYGMDVWGQGTTVTVSS VL: DIQMTQSPSSVSASVGDRVTITCRASQGISSWLAWYQQKPGKAPKLLIYAASSLQSGVPSRFSGSGSGTDFTLTISSLQPEDFATYYCQQVSLYPPTFGGGTKVEIK | no binding (tested: 100 nM) |  | no binding (tested: 1 ug/ml) | 0.53 fold over background |  | 
14 | SA-54 (antibody, V domains shown, IgG) VH: QLQLQESGPGLVKPSETLSLTCTVSGGSISSSSYYWGWIRQPPGKGLEWIGSIYYSGSTYYNPSLKSRVTISVDTSKNQFSLKLSSVTAADTAVYYCARGSGIAAADTDGLPMDVWGQGTTVTVSS VL: DIQMTQSPSSVSASVGDRVTITCRASQGISSWLAWYQQKPGKAPKLLIYAASSLQSGVPSRFSGSGSGTDFTLTISSLQPEDFATYYCQQVYLFPITFGGGTKVEIK | no binding (tested: 100 nM) |  | no binding (tested: 1 ug/ml) | 0.461 fold over background |  | 
